Source: patent US20220177604A1 (ARGENX, published 2022)
Substitutions are numbered along the chain they refer to.

Experiments:
[1] = biological target: T1, human immunoglobulin E (hIgE) (human, UniProt P01854-1 1-428); test: SPR, Fab periplasmic extract, pH 7.4
T1 construct: also called human IgE; Native IgE (Abcam)

[2] = biological target: T2, recombinant Motavizumab human IgE (rMota-hIgE) (human, UniProt P01854 1-428); test: SPR, Fab periplasmic extract, pH 7.4
T2 construct: also called Recombinant IgE (argenx)
T2 sequence (P01854 other isoform, or with tags, fused parts or gaps limits assumed, form in doubt): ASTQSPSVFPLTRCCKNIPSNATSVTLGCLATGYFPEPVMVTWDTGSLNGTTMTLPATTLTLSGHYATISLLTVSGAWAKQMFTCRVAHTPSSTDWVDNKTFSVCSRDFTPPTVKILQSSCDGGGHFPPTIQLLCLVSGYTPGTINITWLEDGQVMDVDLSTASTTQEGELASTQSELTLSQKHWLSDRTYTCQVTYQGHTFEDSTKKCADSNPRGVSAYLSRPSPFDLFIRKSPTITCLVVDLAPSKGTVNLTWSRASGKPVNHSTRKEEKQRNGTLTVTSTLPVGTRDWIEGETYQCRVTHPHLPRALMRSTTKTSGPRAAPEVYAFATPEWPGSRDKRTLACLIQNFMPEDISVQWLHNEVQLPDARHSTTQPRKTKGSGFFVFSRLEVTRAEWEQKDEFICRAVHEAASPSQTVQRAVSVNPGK

[3] = biological target: T2, recombinant Motavizumab human IgE …; test: ELISA: rMota-hIgE captured on coated RSV-F, washes at pH 5.5, anti-human Fc-HRP; EC50 unit inferred, x axis in pM; curve reaches only OD450 about 0.85 at about 670 pM
Description: (§1) Briefly a Maxisorp plate was coated with recombinant human respiratory syncytial virus protein F (RSV-F) (0.5 μg/mL), then blocked with PBS with 3% BSA and 0.05% Tween. […] After several washing steps at pH 7.4 or pH 5.5, detection of the bound mAbs was carried out with an anti-human Fc-HRP antibody.

[4] = biological target: T2, recombinant Motavizumab human IgE …; test: ELISA: rMota-hIgE captured on coated RSV-F, washes at pH 7.4, anti-human Fc-HRP; EC50 unit inferred, x axis in pM
Description: as §1

[5] = biological target: T2, recombinant Motavizumab human IgE …; test: ELISA: rMota-hIgE captured on coated RSV-F, washes at pH 5.5, anti-human Fc-HRP; EC50 unit inferred, x axis in pM
Description: as §1

[6] = biological target: T1, human immunoglobulin E (hIgE); test: competition ELISA, hIgE to coated hFcεRIα, pH 7.4
Description: (§2) The IC50 values of each antibody were calculated with a non-linear regression (log(agonist) vs. response Variable slope (four parameters)).

[7] = biological target: T1, human immunoglobulin E (hIgE); test: competition ELISA, hIgE to coated hFcεRIα, pH 6
Description: as §2

[8] = biological target: T2, recombinant Motavizumab human IgE …; test: ELISA: rMota-hIgE captured on coated RSV-F, washes at pH 7.4, anti-human Fc-HRP; EC50 unit inferred, x axis in pM; remark: listed apart in the source
Description: as §1

[9] = biological target: T2, recombinant Motavizumab human IgE …; test: ELISA: rMota-hIgE captured on coated RSV-F, washes at pH 5.5, anti-human Fc-HRP; EC50 unit inferred, x axis in pM; remark: listed apart in the source
Description: as §1

[10] = biological target: T2, recombinant Motavizumab human IgE …; test: as above; remark: listed apart in the source
Description: as §1

[11] = biological target: T2, recombinant Motavizumab human IgE …; test: ELISA: rMota-hIgE captured on coated RSV-F, washes at pH 7.4, anti-human Fc-HRP; EC50 unit inferred, x axis in pM; remark: listed apart in the source
Description: as §1

[12] = biological target: T2, recombinant Motavizumab human IgE …; test: hIgE binding ELISA
Description: The ratio of OD450 measured at pH 7.4 versus OD450 measured at pH 6 was calculated for each of the CL-2C antibodies.

[13] = biological target: T2, recombinant Motavizumab human IgE …; test: hIgE binding ELISA; remark: listed apart in the source
Description: as §1

[14] = biological target: T1, human immunoglobulin E (hIgE); test: SPR (Biacore) on hIgE
Description: The ratio of KD measured at pH 5.5 versus KD measured at pH 7.4 was calculated for each of the CL-2C antibodies.

[15] = biological target: T2, recombinant Motavizumab human IgE …; test: hIgE binding ELISA, pH 7.4
Description: as §1

[16] = biological target: T2, recombinant Motavizumab human IgE …; test: hIgE binding ELISA, pH 5.5
Description: as §1

[17] = biological target: T1, human immunoglobulin E (hIgE); test: competition ELISA, hIgE to hFcεRIα
[18] = biological target: T1, human immunoglobulin E (hIgE); test: SPR competition, hIgE over hFcεRIα chip, pH 5.5
Description: (§3) The assay was performed in HBS-EP pH7.4 or HBS-EP pH 5.5. Raw data were analyzed via BIA evaluation software with a blank subtraction (2-1). […] The IC50 values of each compound were calculated with a non-linear regression (log(agonist) vs. response Variable slope (four parameters)).
(§4) Raw data were analyzed via BIA evaluation software with a blank subtraction (2-1). […] The IC50 values of each compound, calculated with a non-linear regression (log(agonist) vs. response Variable slope (four parameters)).

[19] = biological target: T1, human immunoglobulin E (hIgE); test: competition ELISA, biotin-hIgE to coated hFcεRIα, pH 7.4
Description: (§5) The IC50 values of each compound were calculated with a non-linear regression (log(agonist) vs. response Variable slope (four parameters)).

[20] = biological target: T1, human immunoglobulin E (hIgE); test: SPR competition
[21] = biological target: T1, human immunoglobulin E (hIgE); test: SPR competition, hIgE + mAb over hFcεRIα chip, pH 6 (text: pH 5.5)
Description: (§6) For this purpose, a competition approach was set-up. […] The assay was performed in HBS-EP pH7.4 or HBS-EP pH 5.5. Raw data were analyzed via BIA evaluation software with a blank subtraction (2-1). […] The IC50 values of each compound were calculated with a non-linear regression (log(agonist) vs. response Variable slope (four parameters)).

[22] = biological target: T1, human immunoglobulin E (hIgE); test: SPR competition, hIgE + mAb over hFcεRIα chip, pH 7.4
Description: as §6

[23] = biological target: T1, human immunoglobulin E (hIgE); test: SPR competition; remark: listed apart in the source
Description: as §6

[24] = biological target: T1, human immunoglobulin E (hIgE); test: competition ELISA
Description: as §5

[25] = biological target: T1, human immunoglobulin E (hIgE); test: competition ELISA, biotin-hIgE to coated hFcεRIα, pH 6
Description: as §5

[26] = biological target: T1, human immunoglobulin E (hIgE); test: SPR competition, hIgE over hFcεRIα chip, pH 7.4
Description: as §3, §4

T1 sequence (P01854 whole entry): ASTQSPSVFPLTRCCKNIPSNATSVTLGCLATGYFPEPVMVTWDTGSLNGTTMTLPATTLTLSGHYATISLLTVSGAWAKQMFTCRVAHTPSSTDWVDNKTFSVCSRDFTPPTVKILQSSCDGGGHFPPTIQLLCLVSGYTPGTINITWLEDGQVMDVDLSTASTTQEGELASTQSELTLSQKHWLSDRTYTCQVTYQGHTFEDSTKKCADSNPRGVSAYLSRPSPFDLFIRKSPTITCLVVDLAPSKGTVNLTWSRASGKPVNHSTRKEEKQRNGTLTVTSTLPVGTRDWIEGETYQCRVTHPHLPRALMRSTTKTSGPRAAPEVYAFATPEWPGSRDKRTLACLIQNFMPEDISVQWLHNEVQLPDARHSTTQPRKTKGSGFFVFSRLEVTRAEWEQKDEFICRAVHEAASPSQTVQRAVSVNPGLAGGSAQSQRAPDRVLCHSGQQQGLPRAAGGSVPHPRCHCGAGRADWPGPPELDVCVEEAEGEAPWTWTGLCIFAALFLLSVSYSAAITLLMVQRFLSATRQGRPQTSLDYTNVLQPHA

B1: omalizumab variant Fab VH15 / VL3 (Fab, V domains shown)
VH: EVQLVESGGGLVQPGGSLRLSCAVSGYSITSGHRWEWIRQAPGKGLEWVASIHYDGSTNYNPSVKGRITISRDDSKNTFYLQMNSLRAEDTAVYYCARATHYFGHWHFAVWGQGTLVTVSS
VL: DIQLTQSPSSLSASVGDRVTITCRASQSVDYDGDSYMNWYQQKPGKAPKLLIEWGSYLRSGVPSRFSGSGSGTDFTLTISSLQPEDFATYYCQQNAEDPYTFGQGTKVEIK
- Off-rate improvement ratio (against VHWT VLWT) [1]: 14.8
- R0 (RU) [1]: 235 RU
- koff [1]: 0.00035 s⁻¹
- Off-rate improvement ratio (against VHWT VLWT) [2]: 18
- R0 (RU) [2]: 285 RU
- koff [2]: 0.000269 s⁻¹

B2: 18E2His2-hIgG1-WT (antibody, V domains shown)
VH: QLQLVESGGGLVQPGGSLRLSCAASGFTFSSYVMHWVRQAPGKGLEWVSSIYHDGSHTYYADFVKGRFTISRDNAKNTLYLQMNSLKSEDTAVYYCASGTSYSGSYYYTDPFFGSWGQGTQVTVSS
VL: NFMLTQPSALSVTLGQTARITCQGDRLGSRYIHWYQQKPPQAPVLVIHDDDRRPSGIPERFSGSSSGGTATLTISGAQAEDDGDYYCQSADSSGNPVFGGGTHLTVL
- EC50 [3]: ~4210 nM
- EC50 [4]: 0.365 nM

B3: 18E2His2-hIgG1-ABDEG (antibody, V domains shown)
VH: B2 VH
VL: B2 VL
notes: human IgG1 heavy chain with ABDEG mutations (pUPEX32a); also called 18E2His2-ABDEG
- EC50 [5]: 0.616 nM
- EC50 [4]: 0.121 nM

B4: 18E2_H S35H_MG (antibody, V domains shown)
VH: B2 VH with Q1E, L2V, V5L, A75S, K87R, S88A, S98K, Q121L
VL: SSELTQDPAVSVALGQTVRITCQGDRLGSRYIYWYQQKPGQAPVLVIYDDDRRPSGIPDRFSGSSSGNTASLTITGAQAEDEADYYCQSADSSGNPVFGGGTQLTVL
notes: germlined clone
- IC50 [6]: 0.0657 µg/mL
- IC50 [7]: 0.671 µg/mL

B5: 13E4_MG (antibody, V domains shown)
VH: B2 VH with Q1E, L2V, V5L, H35S, A75S, K87R, S88A, S98K, Q121L
VL: B4 VL with D25G, R26S, R30N, I32A, R52S, S93N, P96A
notes: germlined clone; also called germlined 13E4
- IC50 [6]: 0.0242 µg/mL
- IC50 [7]: 0.0633 µg/mL

B6: 18E2His2_MG (antibody, V domains shown)
VH: B2 VH with Q1E, L2V, V5L, A75S, K87R, S88A, S98K, Q121L
VL: B4 VL with Y33H
notes: also called 18E2VHS35HVLY34HMG
- IC50 [6]: 3.91 µg/mL
- IC50 [7]: ~11300 µg/mL

B7: 18B9His-hIgG1-WT (antibody, V domains shown)
VH: QVQLVESGGGLVQPGGSLRLSCAASGFTFSSYVMSWVRQAPGKGLEWVSSIYSDGSHTYYADSVKGRFTISRDNAKNTLYLQMNSLKSEDTAVYYCAKNLEHYSGSYYYTDPRYDYWGQGTQVTVSS
VL: SSALTQPSALSVTLGQTAKITCQGGSLGSSYVHWYQQKPGQAPVLVIHDGDSRPSGIPERFSGSSSGGTATLTISGAQAEDEDDYYCQSADSSGNAVFGGGTHLTVL
notes: also called VL18B9_Y49H; 18B9-His-WT
- EC50 [8]: 0.142 nM
- EC50 [9]: 0.115 nM

B8: 18B9His-hIgG1-ABDEG (antibody, V domains shown)
VH: B7 VH
VL: B7 VL
notes: also called 18B9His ABDEG; 18B9-hIgG1-ABDEG
- EC50 [8]: 0.119 nM
- EC50 [9]: 0.149 nM

B9: 13E4-hIgG1-ABDEG (antibody, V domains shown)
VH: B2 VH with Q1E, H35S
VL: B7 VL with S1H, L4V, S30N, V32A, H33Y, H48Y, G50D, D83G, S93N
notes: human IgG1 heavy chain with ABDEG mutations (pUPEX32a); also called 13E4-ABDEG
- EC50 [10]: 0.122 nM
- EC50 [11]: 0.11 nM

B10: 18B9His_MG (antibody, V domains shown)
VH: B7 VH with Q1E, V5L, A75S, K87R, S88A, Q122L
VL: B4 VL with D25G, R26S, R30S, I32V, Y33H, D50G, R52S, P96A
- IC50 [6]: 0.176 µg/mL
- IC50 [7]: 1.74 µg/mL

B11: 13E4-hIgG1-WT (antibody, V domains shown)
VH: B2 VH with Q1E, H35S
VL: B7 VL with S1H, L4V, S30N, V32A, H33Y, H48Y, G50D, D83G, S93N
notes: also called clone 13E4
- EC50 [10]: 0.0938 nM
- EC50 [11]: 0.0913 nM

B12: CL-2C mAb 37 (antibody, V domains shown)
VH: QVQLVQSGAEVMKPGSSVKVSCKASGYTFSWYHLEWVRQAPGHGLEWMGEIDPGTFTTNYNEKFKARVTFTADTSTSTAYMELSSLRSEDTAVYYCARFSHFSGSNHDYFDYWGQGTLVTVSS
VL: EIVMTQSPATLSVSPGERATLSCRASQSIGTNIHWYQQKPGQAPRLLIYYASESISGIPARFSGSGSGTEFTLTISSLQSEDFAVYYCQQSWSWPTTFGGGTKVEIK
notes: also called VKWT + VH33H100CH
- Ratio OD450 pH 7.4/pH 6 [12]: 10.3
- Ratio EC50 pH 5.5/7.4 [13]: 2.5
- Ratio EC50 pH 7.4/5.5 [13]: 0.4
- KD Ratio pH 5.5/pH 7.4 [14]: 11.1
- EC50 [15]: 0.0149 µg/mL
- EC50 [16]: 0.0373 µg/mL
- IC50 [17]: 0.483 nM

B13: 3D1 human IgG1 mAb (antibody, V domains shown)
VH: QLQVVESGGGLVQPGGSLRLSCAASGFTFSSYYMSWVRQAPGKGLEWVSSIYSDGRGSKTFYADSVKGRFTISRDNAKNTLYLQMNSLKSEDTAVYFCAKDLLVAARGSMDYWGQGTQVTVSS
VL: NFMLTQPSAVSVSLEQTARITCQGGTLGSYGAHWYQQKPGQAPVLLIYGDNSRPSGIPERFSGTRSGGTATLTISGAQAEDEADYYCQSFDYSGNAVFGGGTHLTVL
notes: human IgG1 and human light chain constant domains; also called clone 3D1; WT 3D1
- IC50 [18]: 11.7 µg/mL
- IC50 [19]: 90.3 nM
- ratio between IC50 at pH5.5 and pH 7.4 [20]: 8.6
- IC50 [21]: 4.44 nM
- IC50 [22]: 5.31 nM
- Ratio pH 6/7.4 (IC50) [23]: 0.8
- Ratio pH 6/7.4 (IC50) [24]: 1.3
- IC50 [25]: 118 nM
- IC50 [26]: 1.36 µg/mL

B14: 18E2_VL Y34H_MG (antibody, V domains shown)
VH: QLLESGGGLVQPGGSLRLSCAASGFTFSSYVMSWVRQAPGKGLEWVSSIYHDGSHTYYADFVKGRFTISRDNSKNTLYLQMNSLRAEDTAVYYCAKGTSYSGSYYYTDPFFGSWGQGTLVTVSS
VL: B4 VL with Y33H
notes: germlined clone
- IC50 [6]: 0.706 µg/mL
- IC50 [7]: 61.4 µg/mL
